Molecular target: ANDV Gn^H/Gc (Andes virus; strain , Q9E006 …, UniProt Q9E006)
Experiment: BLI

Binder	half-life (t1/2) of the complex at pH 5.5 [s]	fold reduction of dissociation at acidic pH against ADI-42898 [fold]
ADI-42898 (monoclonal antibody, IgG) (antibody, V domains shown) VH: QVQLVESGGGVVQPGRSLRLSCAASGFTFSSYAMHWVRQAPGKGLEWVAVTWFDVSKKDYADSVKGRFTISRDNSKNTLYLQMNSLRAEDTAVYYCARNLIRYSGSYFPVHGMDVWGQGTTVTVSS VL: DIVMTQSPLSLPVTPGEPASISCRSSQSLLHTYGYNCLDWYLQRPGQSPQLLISLGSYRASGVPDRFSGSGSGTDFTLKISRVEAEDVGVYYCMQALHPFTFGGGTKVEIK	519	
ADI-65534 (antibody, V domains shown) VH: QVQLVESGGGVVQPGRSLRLSCAASGFEFSSYAMHWVRQAPGKGLEWVAVTWFDVSKKDYADSVKGRFTISRDNSKNTLYLQMNSLRAEDTAVYYCARNLIRYSVSYFPVHGMDVWGQGTTVTVSS VL: DIVMTQSPLSLPVTPGEPASISCRSSQSLLHTYGYNVLDWYLQRPGQSPQLLISLGSYRASGVPDRFSGSGSGTDFTLKISRVEAEDVGVYYCMQALHPFTFGGGTKVEIK		10
ADI-65533 (antibody, V domains shown) VH: QVQLVESGGGVVQPGRSLRLSCAASGFTFSSYAMHWVRQAPGKGLEWVAVTWFDVSKKDYADSVKGRFTISRDNSKNTLYLQMNSLRAEDTAVYYCARNLIRYSVSYFPVHGMDVWGQGTTVTVSS VL: DIVMTQSPLSLPVTPGEPASISCRSSQSLLHTYGYNVLDWYLQRPGQSPQLLISLGSYRASGVPDRFSGSGSGTDFTLKISRVEAEDVGVYYCMQALHPFTFGGGTKVEIK		10

Source: publication PMC11721787 (Science translational medicine, 2023)
